How the values were obtained:
Assay in all cases: EMSA
[1] = biological target: Gsx2 N253A homeodomain fragment (Mus musculus, UniProt P31316 167-305, N253A)
[2] = biological target: Gsx2 homeodomain fragment (Mus musculus, UniProt P31316 167-305)
E47 bHLH fragment = biological target: T1, E47 bHLH fragment (Mus musculus, UniProt P15806-2 430-648)
T1 sequence: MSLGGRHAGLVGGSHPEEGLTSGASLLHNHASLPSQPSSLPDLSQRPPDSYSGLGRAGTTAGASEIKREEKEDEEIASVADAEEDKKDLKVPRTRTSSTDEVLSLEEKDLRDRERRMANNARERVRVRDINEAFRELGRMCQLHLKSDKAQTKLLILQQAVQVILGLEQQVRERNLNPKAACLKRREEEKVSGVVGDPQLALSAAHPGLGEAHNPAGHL

Chain of Gsx2 homeodomain fragment (P31316 167-305): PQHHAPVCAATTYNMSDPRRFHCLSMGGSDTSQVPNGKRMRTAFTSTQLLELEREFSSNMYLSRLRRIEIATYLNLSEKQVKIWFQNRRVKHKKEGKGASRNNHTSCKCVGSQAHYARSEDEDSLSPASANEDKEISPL
Chain of Gsx2 N253A homeodomain fragment (P31316 167-305 N253A): as the sequence (P31316 167-305) above, with N87A counted along it

B1: Gsx2_site (dsDNA)
DNA 1: CAGAGTGTAATTAACATTCAGTAGTGCGGGCGTGGCT
DNA 2: AGCCACGCCCGCACTACTGAATGTTAATTACACTCTG
- binding result [1]: no binding
- binding result [2]: binds

B2: Ac-Luc E2 (dsDNA)
DNA 1: CACCAACAGCTGCGTTTTTAGTGCGGGCGTGGCT
DNA 2: AGCCACGCCCGCACTAAAAACGCAGCTGTTGGTG
- binding result (E47 bHLH fragment): binds

— doi:10.1101/794511
